These results are taken from paper PMC11187071.

Assay [1] deals with IgG150-18 (scFv150-18 cloned into human IgG format). The assay is described as follows: FACS assay on cells. The conditions noted are these: chain shown with the change; highest antibody concentration point, Log [IgG150_18] (M) about -7.5; parent: est. 100; read off a plot. (In general: In flow cytometry, cells or beads pass a laser one at a time.)
Assay [2] shares this target. The assay is described as follows: FACS binding assay. Particulars: chain shown with the change, read off a plot.
Where [3] appears, read: 100nM antibody, parent: est. 100.

Substitutions are numbered along the chain they refer to. Names may count otherwise.

IgG150-18 (scFv150-18 cloned into human IgG format), sequence (chain, as listed by the source, chain 1 of 2): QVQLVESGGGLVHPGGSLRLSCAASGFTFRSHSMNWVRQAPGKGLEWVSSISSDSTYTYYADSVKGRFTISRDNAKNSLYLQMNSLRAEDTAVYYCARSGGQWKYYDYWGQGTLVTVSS
IgG150-18 (scFv150-18 cloned into human IgG format), sequence (chain, as listed by the source, chain 2 of 2): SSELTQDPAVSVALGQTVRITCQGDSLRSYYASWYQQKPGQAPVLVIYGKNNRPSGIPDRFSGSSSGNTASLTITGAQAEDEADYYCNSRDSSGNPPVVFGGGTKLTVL

B1: WT GPRC5D expressed on HEK293T cells, Q9NZD1 S8G; D11G; L15G; C16G; D17G; E83G; L84G; R154G; V159G; N160G; T162G; P163G; L166G; P235G; Q236G (protein)
chain: MYKDCIEGTGGYFLGGGAEGPWGIILESLAILGIVVTILLLLAFLFLMRKIQDCSQWNVLPTQLLFLLSVLGLFGLAFAFIIGGNQQTAPVRYFLFGVLFALCFSCLLAHASNLVKLVRGCVSFSWTTILCIAIGCSLLQIIIATEYVTLIMTGGMMFGGMGGCQGNVDFVVLLVYVLFLMALTFFVSKATFCGPCENWKQHGRLIFITVLFSIIIWVVWISMLLRGNPQFQRQGGWDDPVVCIALVTNAWVFLLLYIVPELCILYRSCRQECPLQGNACPVTAYQHSFQVENQELSRARDSDGAEEDVALTSYGTPIQPQTVDPTQECFIPQAKLSPQQDAGGV
For the molecule B1, the percent of parent in assay [1] was 12 % of WT; in assay [2] (10nM antibody, parent: est. 75) it was 1 % of WT.

B2: WT GPRC5D expressed on HEK293T cells, Q9NZD1 E83A (protein)
chain: MYKDCIESTGDYFLLCDAEGPWGIILESLAILGIVVTILLLLAFLFLMRKIQDCSQWNVLPTQLLFLLSVLGLFGLAFAFIIALNQQTAPVRYFLFGVLFALCFSCLLAHASNLVKLVRGCVSFSWTTILCIAIGCSLLQIIIATEYVTLIMTRGMMFVNMTPCQLNVDFVVLLVYVLFLMALTFFVSKATFCGPCENWKQHGRLIFITVLFSIIIWVVWISMLLRGNPQFQRQPQWDDPVVCIALVTNAWVFLLLYIVPELCILYRSCRQECPLQGNACPVTAYQHSFQVENQELSRARDSDGAEEDVALTSYGTPIQPQTVDPTQECFIPQAKLSPQQDAGGV
For the molecule B2, the percent of parent in assay [2] (1nM antibody, parent: est. 8) was 5 % of WT; in assay [2] (10nM antibody, parent: est. 75), 72 % of WT; in assay [2] (setting [3]), 95 % of WT.

B3: WT GPRC5D expressed on HEK293T cells, Q9NZD1 T9A (protein)
chain: B2 chain with T9A, A83E
For the molecule B3, the percent of parent in assay [2] (1nM antibody, parent: est. 8) is 11 % of WT; in assay [2] (10nM antibody, parent: est. 75) it was 82 % of WT; in assay [2] (setting [3]), 100 % of WT.

B4: WT GPRC5D expressed on HEK293T cells, Q9NZD1 S8A (protein)
chain: B2 chain with S8A, A83E
For B4, the percent of parent in assay [2] (1nM antibody, parent: est. 8) is 3 % of WT; in assay [2] (10nM antibody, parent: est. 75), 65 % of WT; in assay [2] (setting [3]), 92 % of WT.

B5: WT GPRC5D expressed on HEK293T cells, Q9NZD1 P235A (protein)
chain: B2 chain with A83E, P235A
Regarding B5, the percent of parent in assay [2] (10nM antibody, parent: est. 75) was 43 % of WT; in assay [2] (setting [3]), 95 % of WT.

B6: WT GPRC5D expressed on HEK293T cells, Q9NZD1 P235G; Q236G (protein)
chain: B2 chain with A83E, P235G, Q236G
As for B6, the percent of parent in assay [1] was 100 % of WT.

B7: WT GPRC5D expressed on HEK293T cells, Q9NZD1 Q236A (protein)
chain: B2 chain with A83E, Q236A
Take B7: the percent of parent in assay [2] (10nM antibody, parent: est. 75) was 53 % of WT; in assay [2] (setting [3]), 75 % of WT.

B8: WT GPRC5D expressed on HEK293T cells, Q9NZD1 D11A (protein)
chain: B2 chain with D11A, A83E
B8: the percent of parent in assay [2] (setting [3]) was 42 % of WT.

B9: WT GPRC5D expressed on HEK293T cells, Q9NZD1 C16A (protein)
chain: B2 chain with C16A, A83E
In the case of B9, in assay [2] (10nM antibody, parent: est. 75), the percent of parent is 1 % of WT.

B10: WT GPRC5D expressed on HEK293T cells, Q9NZD1 R154G; V159G; N160G; T162G; P163G; L166G (protein)
chain: B2 chain with A83E, R154G, V159G, N160G, T162G, P163G, L166G
Take B10: in assay [1], the percent of parent is 82 % of WT.

B11: WT GPRC5D expressed on HEK293T cells, Q9NZD1 E83G; L84G (protein)
chain: B2 chain with A83G, L84G
With B11, the percent of parent in assay [1] is 97 % of WT.

B12: WT GPRC5D expressed on HEK293T cells, Q9NZD1 S8G; D11G; L15G; C16G; D17G (protein)
chain: B2 chain with S8G, D11G, L15G, C16G, D17G, A83E
B12: in assay [1], the percent of parent was 3 % of WT.

B13: WT GPRC5D expressed on HEK293T cells, Q9NZD1 L15A (protein)
chain: B2 chain with L15A, A83E
Take B13: the percent of parent is 38 % of WT in assay [2] (10nM antibody, parent: est. 75) and 63 % of WT in assay [2] (setting [3]).
